The assay deals with neonatal Fc receptor (FcRn) (UniProt P55899). The experiment in a line: FcRn binding assay.
Sequence of UniProt P55899 (P55899 whole entry, looked up, tested part not stated): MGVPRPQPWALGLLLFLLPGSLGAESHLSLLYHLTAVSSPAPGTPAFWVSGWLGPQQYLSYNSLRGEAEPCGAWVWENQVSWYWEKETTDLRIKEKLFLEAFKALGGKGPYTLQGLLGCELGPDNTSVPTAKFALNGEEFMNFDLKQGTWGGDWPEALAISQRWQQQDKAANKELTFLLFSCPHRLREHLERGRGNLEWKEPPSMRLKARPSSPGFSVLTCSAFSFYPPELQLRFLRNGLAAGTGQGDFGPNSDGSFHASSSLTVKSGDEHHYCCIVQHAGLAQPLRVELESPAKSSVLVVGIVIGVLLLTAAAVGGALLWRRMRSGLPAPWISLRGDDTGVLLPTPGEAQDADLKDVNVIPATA

Regarding “Fc deglycosylated tralokinumab (antibody)”, the FcRn binding relative to control tralokinumab amounted to 87%.

The values above are taken from article PMC6520328.
